Source: the supplement of paper PMC10567573

B1: KRT34 (parent)
chain: YQSYFKTIEELQQKILCAKAENAR
B2: PDZK1 (parent)
chain: QKEQGLSDNILSPVMNGGVQTWTQ

Variants of: B1
Assay: protein stability index of a GFP-peptide fusion (GPS, HEK-293T) (PSI 1-6); higher = more stable
Details: c terminus: a fixed tail appended
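Also: lentivirally expressed fusions sorted by FACS into six bins by GFP to DsRed ratio, PSI derived from sequencing read proportions per bin multiplied by bin number.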

Point of comparison: YQSYFKTIEELQQKILYAKAENAR [C17Y], protein stability index 2.15. Against it:
- YQSYFKTIEELQQKILCAKAENVR [A23V] — lower, 1.32
- YQSYFKTIEELQQKILCAKAENLR [A23L] — lower, 2.01
- YQSYFKTIEELQQKILCAKAENCR [A23C] — lower, 1.39
- YQSYFKTIEELQQKILCAKAENTR [A23T] — lower, 1.64
- YQSYFKTIEELQQKILCAKAENMR [A23M] — lower, 1.88
- YQSYFKTIEELQQKILCAKAENKR [A23K] — higher, 2.17
- YQSYFKTIEELQQKILCAKAENFR [A23F] — higher, 2.72
- YQSYFKTIEELQQKILCAKAENIR [A23I] — lower, 1.65
- YQSYFKTIEELQQKILCAKAENER [A23E] — higher, 2.71
- YQSYFKTIEELQQKILCAKAENYR [A23Y] — lower, 1.87
- YQSYFKTIEELQQKILCAKAENDR [A23D] — lower, 2.08
- YQSYFKTIEELQQKILCAKAENHR [A23H] — higher, 2.93
- YQSYFKTIEELQQKILCAKAENGR [A23G] — lower, 1.96
- YQSYFKTIEELQQKILCAKAERAR [N22R] — lower, 1.43
- YQSYFKTIEELQQKILCAKAEPAR [N22P] — lower, 1.89
- YQSYFKTIEELQQKILCAKAETAR [N22T] — higher, 2.4
- YQSYFKTIEELQQKILCAKAELAR [N22L] — higher, 2.26
- YQSYFKTIEELQQKILCAKAEGAR [N22G] — lower, 1.36
- YQSYFKTIEELQQKILCAKAESAR [N22S] — higher, 2.46
- YQSYFKTIEELQQKILCAKAEKAR [N22K] — higher, 2.22
- YQSYFKTIEELQQKILCAKAEDAR [N22D] — higher, 2.54
- YQSYFKTIEELQQKILCAKAEEAR [N22E] — lower, 1.89
- YQSYFKTIEELQQKILCAKAEMAR [N22M] — lower, 1.59
- YQSYFKTIEELQQKILCAKAEAAR [N22A] — lower, 1.69
- YQSYFKTIEELQQKILCAKAEYAR [N22Y] — lower, 1.59
- YQSYFKTIEELQQKILCAKAEQAR [N22Q] — lower, 2.09
- YQSYFKTIEELQQKILCAKAECAR [N22C] — lower, 2.04
- YQSYFKTIEELQQKILCAKAEFAR [N22F] — higher, 2.17
- YQSYFKTIEELQQKILCAKAEHAR [N22H] — lower, 1.81

Variants of: B2
Assay: as above
Details: c terminus: a fixed tail appended

Point of comparison: QKFQGLSDNILSPVMNGGVQTWTQ [E3F], protein stability index 1.67. Against it:
- QKERGLSDNILSPVMNGGVQTWTQ [Q4R] — higher, 3.73
- QKEDGLSDNILSPVMNGGVQTWTQ [Q4D] — higher, 3.67
- QKEVGLSDNILSPVMNGGVQTWTQ [Q4V] — higher, 2.52
- QKEKGLSDNILSPVMNGGVQTWTQ [Q4K] — higher, 2.08
- QKEEGLSDNILSPVMNGGVQTWTQ [Q4E] — higher, 2.85
- QKEHGLSDNILSPVMNGGVQTWTQ [Q4H] — higher, 2.61
- QKEFGLSDNILSPVMNGGVQTWTQ [Q4F] — higher, 2.21
- QKELGLSDNILSPVMNGGVQTWTQ [Q4L] — higher, 2.14
- QKEPGLSDNILSPVMNGGVQTWTQ [Q4P] — higher, 2.64
- QKETGLSDNILSPVMNGGVQTWTQ [Q4T] — higher, 2.78
- QKEMGLSDNILSPVMNGGVQTWTQ [Q4M] — higher, 1.82
- QKECGLSDNILSPVMNGGVQTWTQ [Q4C] — higher, 2.08
- QKENGLSDNILSPVMNGGVQTWTQ [Q4N] — higher, 2.29
- QTEQGLSDNILSPVMNGGVQTWTQ [K2T] — higher, 3.26
- QREQGLSDNILSPVMNGGVQTWTQ [K2R] — higher, 3.05
- QNEQGLSDNILSPVMNGGVQTWTQ [K2N] — higher, 2.88
- QIEQGLSDNILSPVMNGGVQTWTQ [K2I] — higher, 2.42
- QMEQGLSDNILSPVMNGGVQTWTQ [K2M] — higher, 2.51
- QSEQGLSDNILSPVMNGGVQTWTQ [K2S] — higher, 3.13
- QYEQGLSDNILSPVMNGGVQTWTQ [K2Y] — higher, 3.24
- QHEQGLSDNILSPVMNGGVQTWTQ [K2H] — higher, 2.81
- QCEQGLSDNILSPVMNGGVQTWTQ [K2C] — higher, 3.57
- QEEQGLSDNILSPVMNGGVQTWTQ [K2E] — higher, 3.35
- QQEQGLSDNILSPVMNGGVQTWTQ [K2Q] — higher, 3.15
- QFEQGLSDNILSPVMNGGVQTWTQ [K2F] — higher, 2.26
- QGEQGLSDNILSPVMNGGVQTWTQ [K2G] — higher, 2.76
- QPEQGLSDNILSPVMNGGVQTWTQ [K2P] — higher, 2.67
- QDEQGLSDNILSPVMNGGVQTWTQ [K2D] — higher, 3.23
- IKEQGLSDNILSPVMNGGVQTWTQ [Q1I] — higher, 2.12
- RKEQGLSDNILSPVMNGGVQTWTQ [Q1R] — higher, 2.02
- GKEQGLSDNILSPVMNGGVQTWTQ [Q1G] — higher, 2.15
- TKEQGLSDNILSPVMNGGVQTWTQ [Q1T] — higher, 2.7
- EKEQGLSDNILSPVMNGGVQTWTQ [Q1E] — higher, 3.26
- KKEQGLSDNILSPVMNGGVQTWTQ [Q1K] — higher, 2.58
- SKEQGLSDNILSPVMNGGVQTWTQ [Q1S] — higher, 2.1
- NKEQGLSDNILSPVMNGGVQTWTQ [Q1N] — higher, 2.75
- LKEQGLSDNILSPVMNGGVQTWTQ [Q1L] — higher, 2.41
- PKEQGLSDNILSPVMNGGVQTWTQ [Q1P] — higher, 3.23
- AKEQGLSDNILSPVMNGGVQTWTQ [Q1A] — higher, 2.61
- CKEQGLSDNILSPVMNGGVQTWTQ [Q1C] — higher, 1.91
- MKEQGLSDNILSPVMNGGVQTWTQ [Q1M] — higher, 2.98
- VKEQGLSDNILSPVMNGGVQTWTQ [Q1V] — higher, 1.96
- FKEQGLSDNILSPVMNGGVQTWTQ [Q1F] — higher, 1.97
- YKEQGLSDNILSPVMNGGVQTWTQ [Q1Y] — higher, 2.47
- WKEQGLSDNILSPVMNGGVQTWTQ [Q1W] — higher, 1.94
- DKEQGLSDNILSPVMNGGVQTWTQ [Q1D] — higher, 3.37
- QKAQGLSDNILSPVMNGGVQTWTQ [E3A] — higher, 3.02
- QKDQGLSDNILSPVMNGGVQTWTQ [E3D] — higher, 3.51
- QKVQGLSDNILSPVMNGGVQTWTQ [E3V] — higher, 2.05
- QKMQGLSDNILSPVMNGGVQTWTQ [E3M] — higher, 2.61
- QKIQGLSDNILSPVMNGGVQTWTQ [E3I] — higher, 2.67
- QKRQGLSDNILSPVMNGGVQTWTQ [E3R] — lower, 1.52
- QKTQGLSDNILSPVMNGGVQTWTQ [E3T] — higher, 2.88
- QKPQGLSDNILSPVMNGGVQTWTQ [E3P] — higher, 2.93
- QKGQGLSDNILSPVMNGGVQTWTQ [E3G] — higher, 1.82
- QKWQGLSDNILSPVMNGGVQTWTQ [E3W] — higher, 2.17
- QKLQGLSDNILSPVMNGGVQTWTQ [E3L] — higher, 2.12
- QKSQGLSDNILSPVMNGGVQTWTQ [E3S] — higher, 2.02
- QKQQGLSDNILSPVMNGGVQTWTQ [E3Q] — higher, 2.18
- QKCQGLSDNILSPVMNGGVQTWTQ [E3C] — higher, 2.05
- QKHQGLSDNILSPVMNGGVQTWTQ [E3H] — higher, 2.24
- QKKQGLSDNILSPVMNGGVQTWTQ [E3K] — higher, 4.26
- QKYQGLSDNILSPVMNGGVQTWTQ [E3Y] — higher, 1.68
